Assay results as given in patent US20150132269.

Assays:
Test in all cases: cell_activity
[1] = system: ZFN 46189 (synthetic); settings: pair with 46188, K562
[2] = system: ZFN 46181 (synthetic); settings: pair with 46180, K562
[3] = system: ZFN 46180 (synthetic); settings: pair with 46181, K562
[4] = system: ZFN 46247 (synthetic); settings: pair with 46246, K562
[5] = system: ZFN 46156 (synthetic); settings: pair with 46158, K562
[6] = system: ZFN 46246 (synthetic); settings: pair with 46247, K562
[7] = system: ZFN 45844 (synthetic); settings: pair with 45843, CD34+ cells
[8] = system: ZFN 47021 (synthetic); settings: pair with 45843
[9] = system: ZFN 46163 (synthetic); settings: pair with 46164, K562
[10] = system: ZFN 46216 (synthetic); settings: pair with 46217, K562
[11] = system: ZFN 46228 (synthetic); settings: pair with 46226, K562
[12] = system: ZFN 46241 (synthetic); settings: pair with 46240, K562
[13] = system: ZFN 46786 (synthetic); settings: pair with 46880
[14] = system: ZFN 46801 (synthetic); settings: pair with 46880
[15] = system: ZFN 46816 (synthetic); settings: pair with 47923
[16] = system: ZFN 46934 (synthetic); settings: pair with 47923
[17] = system: ZFN 46188 (synthetic); settings: pair with 46189, K562
[18] = system: ZFN 46164 (synthetic); settings: pair with 46163, K562
[19] = system: ZFN 46230 (synthetic); settings: pair with 46229, K562
[20] = system: ZFN 46158 (synthetic); settings: pair with 46156, K562, Cel-I
[21] = system: ZFN 46226 (synthetic); settings: pair with 46228, K562
[22] = system: ZFN 46229 (synthetic); settings: pair with 46230, K562
[23] = system: ZFN 46208 (synthetic); settings: pair with 46209, K562
[24] = system: ZFN 45843 (synthetic); settings: pair with 45844, CD34+ cells
[25] = system: ZFN 46209 (synthetic); settings: pair with 46208, K562
[26] = system: ZFN 46240 (synthetic); settings: pair with 46241, K562
[27] = system: ZFN 46880 (synthetic); settings: pair with 46801
[28] = system: ZFN 47923 (synthetic); settings: pair with 46801
[29] = system: ZFN 46217 (synthetic); settings: pair with 46216, K562

Question: “ACACCCTGTGATCTTGTGGGACCCCTCT (double strand) [46189 target]” was tested. Which activity [1] did it give?
Answer: 12.8 % NHEJ

Question: With “GCAATGCTTGGAGGCTGTGAGCTCCCCA (double strand) [46181 target]” as the sequence, how does the activity [2] read?
Answer: 15.2 % NHEJ

Question: With “TCATCCTGGTACCAGGAAGGCAATGGGC (double strand) [46180 target]” as the sequence, how does the activity [3] read?
Answer: 15.2 % NHEJ

Question: With “CCGTCTACATAGAGGCCCTTCCTGCTTG (double strand) [46247 target]” as the sequence, how does the activity [4] read?
Answer: 17.3 % NHEJ

Question: “TGGCCTGGGACATTCATTATTTAGCCAC (double strand) [46156 target]” was tested. Which activity [5] did it give?
Answer: 30.4 % NHEJ

Question: Which activity [6] does the source give for “GTGTGGCTCCTTAAGGTGACCCAGCAGC (double strand) [46246 target]” here?
Answer: 17.3 % NHEJ

Question: Which results are given for “TCACAGGCTCCAGGAAGGGTTTGGCCTC (double strand) [45844 target]”?
Answer: activity [7]: 78 % NHEJ (D0); activity [8]: 82 % NHEJ (D0)

Question: For “TAGAATTGGCCTGGGACATTCATTATTT (double strand) [46163 target]”, which activity [9] is on record?
Answer: 21.9 % NHEJ

Question: With “CAGGCTGGGCTGGACAGAGGGGTCCCAC (double strand) [46216 target]” as the sequence, how does the activity [10] read?
Answer: 16.6 % NHEJ

Question: Which activity [11] does the source give for “ATAGGGGTCGCGGTAGGGAGTTGTCGGC (double strand) [46228 target]” here?
Answer: 37.8 % NHEJ

Question: Which activity [12] does the source give for “TCCCCAAGGCTGTGCCCAGCCTTCAGTG (double strand) [46241 target]” here?
Answer: 25 % NHEJ

Question: With “AAAGCAACTGTTAGCTTGCACTAGACTA (double strand) [45848/46801 target]” as the sequence, how does the activity [13] read?
Answer: 71 % NHEJ (D0)

Question: What about the activity [14] of the same sequence?
Answer: 87 % NHEJ (D0)

Question: What about the activity [15] of the same sequence?
Answer: 29.9 % indels

Question: And the activity [16]?
Answer: 80 % NHEJ (D0)

Question: With “CCTGAGAAGGTGGGGAGCTCACAGCCTC (double strand) [46188 target]” as the sequence, how does the activity [17] read?
Answer: 12.8 % NHEJ

Question: “GAAGGGAAGTGGGTATGGGGCAGCCCAT (double strand) [46164 target]” was tested. Which activity [18] did it give?
Answer: 21.9 % NHEJ

Question: “TCGCGGTAGGGAGTTGTCGGCACACACT (double strand) [46230 target]” was tested. Which activity [19] did it give?
Answer: 37.2 % NHEJ

Question: “TCTAGGAAGGGAAGTGGGTATGGGGCAG (double strand) [46158 target]” was tested. Which activity [20] did it give?
Answer: 30.4 % NHEJ

Question: Which activity [21] does the source give for “GTGCCGACCAAGCACACAAGATGCACAC (double strand) [46226 target]” here?
Answer: 37.8 % NHEJ

Question: With “CCTATCAGTGCCGACCAAGCACACAAGA (double strand) [46229 target]” as the sequence, how does the activity [22] read?
Answer: 37.2 % NHEJ

Question: “GGGCTGGACAGAGGGGTCCCACAAGATC (double strand) [46208 target]” was tested. Which activity [23] did it give?
Answer: 28 % NHEJ

Question: How did the activity [24] turn out when “AAGCAACTGTTAGCTTGCACTAGACTAG (double strand) [45843 target]” was run?
Answer: 78 % NHEJ (D0)

Question: “GCCTGGGTGTGCATCTTGTGTGCTTGGT (double strand) [46209 target]” was tested. Which activity [25] did it give?
Answer: 28 % NHEJ

Question: With “CTCACAGGACATGCAGCAGTGTGTGCCG (double strand) [46240 target]” as the sequence, how does the activity [26] read?
Answer: 25 % NHEJ

Question: What does the source list for “CACAGGCTCCAGGAAGGGTTTGGCCTCT (double strand) [45849/46880 target]”?
Answer: activity [27]: 87 % NHEJ (D0); activity [28]: 82 % NHEJ (D0)

Question: Which activity [29] does the source give for “GTGTGCATCTTGTGTGCTTGGTCGGCAC (double strand) [46217 target]” here?
Answer: 16.6 % NHEJ
